Test results reported in the supplement of paper PMC9170038.

Tested on: MS2 coat protein
Assay: apparent KD of MS2 coat protein; designed switch direction (-1 OFF switch, 1 ON switch): -1; higher = weaker reporter binding
Method in brief: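 For each design, the apparent KD is the median over clusters of curves fitted to normalised cluster fluorescence. Clusters held RNA switches with common flanks, transcribed on Illumina chips by stalled E. coli RNA polymerase. These were titrated with SNAP-549-labelled MS2 coat protein, doubling from 0.7 or 1.5 nM to 3 µM, without input, with 200 uM small-molecule ligand, or with an oligonucleotide input.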

[1] = input ligand: microRNA oligo, concentration not stated
[2] = Eterna round: R95, input ligand: FMN 200 uM
[3] = Eterna round: R95, input ligand: microRNA oligo, concentration not stated
[4] = Eterna round: R95, input ligand: none

GCAGCAUAGAUGAAAAUCUGAUACAUGAGGAUCACCCAUGUUCAGGAUAUGGUCUGGAUUACAGGCCAGAAGGGAACAAGCUGC [Eli exng3 - 011] (Eterna round: R96, puzzle: Exclusion NG 3)
apparent KD of MS2 coat protein (input ligand: FMN 200 uM): 14 nM | apparent KD of MS2 coat protein [1]: 10.3 nM | apparent KD of MS2 coat protein (input ligand: none): 12 nM

GCAGCAUAGUCCAAAUAGGACAUACAUGAGGAUCACCCAUGUCAGGAUAUGGUCUGGAUUACAGGCCAGAAGGGACGUAGCUGC [Eli exng3 - 004] (Eterna round: R96, puzzle: Exclusion NG 3)
apparent KD of MS2 coat protein (input ligand: FMN 200 uM): 25.9 nM | apparent KD of MS2 coat protein [1]: 20.9 nM | apparent KD of MS2 coat protein (input ligand: none): 23.6 nM

GCAGCAUAGUUUACUAACUGUUACAUGAGGAUCACCCAUGUCUAGGAUAUGGUCUGGAUUACAGGCCAGAAGGAGGCAAGCUGC [Eli exng3 - 035] (Eterna round: R96, puzzle: Exclusion NG 3)
apparent KD of MS2 coat protein (input ligand: FMN 200 uM): 11.8 nM | apparent KD of MS2 coat protein [1]: 16.8 nM | apparent KD of MS2 coat protein (input ligand: none): 19.8 nM

GCAGCAUAGUUUACUAACUGUUACAUGAGGAUCACCCAUGUUUAGGAUAUGGUCUGGAUUACAGGCCAGAAGGAAACAAGCUGC [Eli exng3 - 033] (Eterna round: R96, puzzle: Exclusion NG 3)
apparent KD of MS2 coat protein (input ligand: FMN 200 uM): 12.8 nM | apparent KD of MS2 coat protein [1]: 9.51 nM | apparent KD of MS2 coat protein (input ligand: none): 12.4 nM

GCAGCUUAGUUAACAGACUGUUACAUGAGGAUCACCCAUGUACAGGAUAUGGUCUGGAUUACAGGCCAGAAGGGUACAAGCUGC [Eli exng3 - 018] (Eterna round: R96, puzzle: Exclusion NG 3)
apparent KD of MS2 coat protein (input ligand: FMN 200 uM): 9.62 nM | apparent KD of MS2 coat protein [1]: 9.01 nM | apparent KD of MS2 coat protein (input ligand: none): 11.5 nM

GCAGGAUAAGUGAGGAUAUACCUAUGGAUACAUAGGUAGAAGGCACAUGAGGAUCACCCAUGUUCCUAACCUGC [Fiskers BMX 4 - 68] (puzzle: Brourd's mod of Exclusion 4)
apparent KD of MS2 coat protein [2]: 70.9 nM | apparent KD of MS2 coat protein [3]: 12.8 nM | apparent KD of MS2 coat protein [4]: 15.1 nM

GCAGGUCGAGGAUAUACAUGAGGAUCACCCAUGUGGUCACGUGACGAUAGUCACGAAUGUAGAAGGUGACCUGC [E3/3-B2] (Eterna round: R97, puzzle: Exclusion 3)
apparent KD of MS2 coat protein (input ligand: FMN 200 uM): 3.13 nM | apparent KD of MS2 coat protein (input ligand: none): 207 nM

GCAGGUCGAGGAUAUACAUGAGGAUCACCCAUGUUGAUCAAGCGACUUCGGUCGCAAUGUAGAAGGCGACCUGC [E3/7-A6] (Eterna round: R97, puzzle: Exclusion 3)
apparent KD of MS2 coat protein (input ligand: FMN 200 uM): 151 nM | apparent KD of MS2 coat protein (input ligand: none): 1210 nM

GCAGGUUAAGUCAGGAUAUACCUAUGGAUACAUAGGUAGAAGGGACAUGAGGAUCACCCAUGUGCCUCACCUGC [Fiskers BMX 4 - 19] (puzzle: Brourd's mod of Exclusion 4)
apparent KD of MS2 coat protein [3]: 16.8 nM

GCAGGUUAAGUCAGGAUAUACCUAUGGAUACAUAGGUAGAAGGGACAUGAGGAUCACCCAUGUGCCUCACCUGC [Mod of Eli - Jieux - Brourd's mod of Exclusion 4] (Eterna round: R97, puzzle: Brourd's mod of Exclusion 4)
apparent KD of MS2 coat protein (input ligand: FMN 200 uM): 109 nM | apparent KD of MS2 coat protein (input ligand: none): 26.1 nM

GCAUGAAAUGUGAGGAUAUACCUCUGGAUACAUAGGUAGAAGGCACAUGAGGAUCACCCAUGUCCUAAACAUGC [Fiskers BMX 4 - 27] (puzzle: Brourd's mod of Exclusion 4)
apparent KD of MS2 coat protein [3]: 32.2 nM

GCAUGGAAAGUGAGGAUAUACCACUGGAUACAGUGGUAGAAGGCACAUGAGGAUCACCCAUGUCUCUACCAUGC [Fiskers BMX 4 - 41] (puzzle: Brourd's mod of Exclusion 4)
apparent KD of MS2 coat protein [3]: 13.4 nM

GCAUUGAGUGUGAGGAUAUGCUGGUCCUUGGAUCAGCAGAAGGCACAUGAGGAUCACCCAUGUGAAAACAAUGC [JL bmx4 3.12] (puzzle: Brourd's mod of Exclusion 4)
apparent KD of MS2 coat protein [2]: 125 nM | apparent KD of MS2 coat protein [3]: 19.2 nM | apparent KD of MS2 coat protein [4]: 20.3 nM

GCCAGAGCAGGAUAUCUAAUAUCUCACAUGAGGAUCACCCAUGUCCAGCGAAAGCUGGAGGGAGAAGGGCUCUGGC [Fiskers Ex 5 - 10] (puzzle: Exclusion 5)
apparent KD of MS2 coat protein [2]: 34.3 nM | apparent KD of MS2 coat protein [3]: 49.8 nM | apparent KD of MS2 coat protein [4]: 61.8 nM

GCCAGAGCAGGAUAUUCAAUAAUCCACAUGAGGAUCACCCAUGUCCUGCGAAAGCAGGAGGGAGAAGGGCUCUGGC [Mat - Exclusion 5 - Eli mod - D89] (puzzle: Exclusion 5)
apparent KD of MS2 coat protein [2]: 37.7 nM | apparent KD of MS2 coat protein [3]: 75.7 nM | apparent KD of MS2 coat protein [4]: 81.9 nM

GCCGAAAAUGUGAGGAUAUACCUAUGGAUACAUAGGUAGAAGGCACAUGAGGAUCACCCAUGUCUAAUAACGGC [Eli bmx4 4.26] (Eterna round: R97, puzzle: Brourd's mod of Exclusion 4)
apparent KD of MS2 coat protein (input ligand: FMN 200 uM): 521 nM | apparent KD of MS2 coat protein (input ligand: none): 212 nM

GCCGAUUAAGUGAGGAUAUACCUAUGGAUACAUAGGUAGAAGGCACAUGAGGAUCACCCAUGUUCCUCAUCGGC [Fiskers BMX 4 - 11] (Eterna round: R96, puzzle: Brourd's mod of Exclusion 4)
apparent KD of MS2 coat protein (input ligand: FMN 200 uM): 155 nM | apparent KD of MS2 coat protein [1]: 16.5 nM | apparent KD of MS2 coat protein (input ligand: none): 21.3 nM

GCCGAUUAAGUGAGGAUAUACCUAUGGAUACAUAGGUAGAAGGCACAUGAGGAUCACCCAUGUUCCUCAUCGGC [Fiskers BMX 4 - 11] (puzzle: Brourd's mod of Exclusion 4)
apparent KD of MS2 coat protein [3]: 19.3 nM

GCCGGAUUUGUGAGGAUAUGCCUAUGGAUACAUAGGCAGAAGGCACAUGAGGAUCACCCAUGUACCUCACCGGC [JL-BMX4-4.23 Eli mod] (Eterna round: R97, puzzle: Brourd's mod of Exclusion 4)
apparent KD of MS2 coat protein (input ligand: FMN 200 uM): 141 nM | apparent KD of MS2 coat protein (input ligand: none): 21.4 nM

GCCGGCUAUGUAGGAUAUGGGCCUGAUACGGGUCUAGAAGGACAUGAGGAUCACCCAUGUAUCGUGCGCUGGUGGCUUGCCGGU [-30, -30 kcal and 19% A] (Eterna round: R96, puzzle: Exclusion NG 1)
apparent KD of MS2 coat protein (input ligand: FMN 200 uM): 389 nM | apparent KD of MS2 coat protein [1]: 119 nM | apparent KD of MS2 coat protein (input ligand: none): 141 nM

GCCGGUUAAGUCAGGAUAUACCUAUGGAUACAUAGGUAGAAGGGACAUGAGGAUCACCCAUGUUCCUCAUCGGC [Fiskers BMX 4 - 13] (puzzle: Brourd's mod of Exclusion 4)
apparent KD of MS2 coat protein [3]: 13.3 nM

GCCGUAAAUGUGAGGAUAUACCUAUGGAAACAUAGGUAGAAGGCACAUGAGGAUCACCCAUGUUCUUAAUCGGC [Mat - Exclusion 4 - Eli Mod - D2] (Eterna round: R97, puzzle: Brourd's mod of Exclusion 4)
apparent KD of MS2 coat protein (input ligand: FMN 200 uM): 689 nM | apparent KD of MS2 coat protein (input ligand: none): 212 nM

GCCGUAAAUGUGAGGAUAUACCUAUGGAUACAUAGGUAGAAGGCACAUGAGGAUCACCCAUGUUCCAAAUCGGC [Eli bmx4 4.07] (Eterna round: R97, puzzle: Brourd's mod of Exclusion 4)
apparent KD of MS2 coat protein (input ligand: FMN 200 uM): 47.9 nM | apparent KD of MS2 coat protein (input ligand: none): 132 nM

GCCGUAAAUGUGAGGAUAUACCUAUGGAUACAUAGGUAGAAGGCACAUGAGGAUCACCCAUGUUCUUAAUCGGC [Eli BMX r4m2] (Eterna round: R97, puzzle: Brourd's mod of Exclusion 4)
apparent KD of MS2 coat protein (input ligand: FMN 200 uM): 567 nM | apparent KD of MS2 coat protein (input ligand: none): 185 nM

GCCUCACUUGAGGAUCACCCAAGUCAGGAUAUCUACAAGCCGACCAUACCGGCUUGCAAGAGAAGGGACUCUAA [Esonreti] (Eterna round: R97, puzzle: Exclusion 1)
apparent KD of MS2 coat protein (input ligand: FMN 200 uM): 246 nM | apparent KD of MS2 coat protein (input ligand: none): 31.8 nM

GCCUCACUUGAGGAUCACCCAAGUCAGGAUAUUCACUGAGCUGCAUAACAACUCGGCCGAAGAAGGGAUUCGGG [Edlacebe] (Eterna round: R97, puzzle: Exclusion 1)
apparent KD of MS2 coat protein (input ligand: FMN 200 uM): 41.3 nM | apparent KD of MS2 coat protein (input ligand: none): 84.9 nM

GCGACACGAGGAUAUCGGGUCUCUAACAUGAGGAUCACCCAUGUGGCGGCAGGCGUAAGACGAGAAGGCGUAUUCA [Eternabot (L2) Solution 65] (Eterna round: R97, puzzle: Exclusion 5)
apparent KD of MS2 coat protein (input ligand: FMN 200 uM): 26.6 nM | apparent KD of MS2 coat protein (input ligand: none): 34.3 nM

GCGAGCAGACGGAGAUCCAACAUGAGGAUCACCCAUGUCUCGCAAGCUUUUUGCUUGUCUUAUCCUCCUCUGUUUAG [Design #8] (Eterna round: R97, puzzle: Sensor, turn-off variant 1)
apparent KD of MS2 coat protein (input ligand: FMN 200 uM): 81.3 nM | apparent KD of MS2 coat protein (input ligand: none): 80.4 nM

GCGCACUAAGUGAGGAUAUCGAUUUUUUUUAGGAUCGAGAAGGCACAUGAGGAUCACCCAUGUUUGACGUGCGC [JR_BMOE4_Sub098] (puzzle: Brourd's mod of Exclusion 4)
apparent KD of MS2 coat protein [3]: 15 nM

GCGCAGGUAGGAUAUCGAGCUAAGAACAUGAGGAUCACCCAUGUGUUCGGUAGCCAACUUCGAGAAGGACCAAAUA [Ceati] (puzzle: Exclusion 5)
apparent KD of MS2 coat protein [2]: 23.9 nM | apparent KD of MS2 coat protein [3]: 11.4 nM | apparent KD of MS2 coat protein [4]: 14.9 nM

GCGCCAUCGUGAGAUGGCGUAAUUACAUGAGGAUCACCCAUGUAGGAUAUCGAUUGCUUUGCAGUCGAGAAGGGCAUGUAUAAU [JL ENG3 3.94] (Eterna round: R96, puzzle: Exclusion NG 3)
apparent KD of MS2 coat protein (input ligand: FMN 200 uM): 45 nM | apparent KD of MS2 coat protein [1]: 26.5 nM | apparent KD of MS2 coat protein (input ligand: none): 37.9 nM

GCGCCAUCGUGAGAUGGCGUUCCGACAUGAGGAUCACCCAUGUAGGAUAUCGAUUGCUUUGCAGUCGAGAAGGGCGUGAUAAGU [JL ENG3 3.73] (Eterna round: R96, puzzle: Exclusion NG 3)
apparent KD of MS2 coat protein (input ligand: FMN 200 uM): 18.3 nM | apparent KD of MS2 coat protein [1]: 17.8 nM | apparent KD of MS2 coat protein (input ligand: none): 22.9 nM

GCGGACUAGAUCGUGAGAUCAGAGACAUGAGGAUCACCCAUGUAGGAUAUCGAUUCGAAACGAAUCGAGAAGGGCAUAGUCCGC [JL denovo 7] (Eterna round: R96, puzzle: Exclusion NG 3)
apparent KD of MS2 coat protein (input ligand: FMN 200 uM): 17.1 nM | apparent KD of MS2 coat protein [1]: 14.8 nM | apparent KD of MS2 coat protein (input ligand: none): 15.9 nM
